Our source for the Kd values is paper PMC3127751, “Adhesive polypeptides of Staphylococcus aureus identified using a novel secretion library technique in Escherichia coli” (BMC Microbiology, 2011).

B1: His-ΔFnBPA (domain or fragment)
chain: ASEQKTTTVEENGNSATDNKTSETQTTATNVNHIEETQSYNATVTEQPSNATQVTTEEAPKAVQAPQTAQPANIETVKEEVVKEEAKPQVKETTQSQDNSGDQRQVDLTPKKATQNQVAETQVEVAQPRTASESKPRVTRSADVAEAKEASNAKVETGTDVTSKVTVEIGSIEGHNNTNKVEPHAGQRAVLKYKLKFENGLHQGDYFDFTLSNNVNTHGVSTARKVPEIKNGSVVMATGEVLEGGKIRYTFTNDIEDKVDVTAELEINLFIDPKTVQTNGNQTITSTLNEEQTSKELDVKYKDGIGNYYANLNGSIETFNKANNRFSHVAFIKPNNGKTTSVTVTGTLMKGSNQNGNQPKVRIFEYLGNNEDIAKSVYANTTDTSKFKEVTSNMSGNLNLQNNGSYSLNIENLDKTYVVHYDGEYLNGTDEVDFRTQMVGHPEQLYKYYYDRGYTLTWDNGLVLYSNKANGNEKNGPIIQNNKFEYKEDTIKETLTGQYDKNLVTTVEEEYDSSTLDIDYHTAIDGGGGYVDGYIETIEETDSSAIDIDYHTAVDSEAGHVGGYTESSEESNPIDFEESTHENSKHHADVVEYEEDTNPGGGQVTTESNLVEFDEESTKGIVTGAVSDHTTVEDTKEYTTESNLIELVDELPEEHGQAQGPVEEITKNNHHISHSGLGTENGHGNYDVIEEIEENSHVDIKSELGYEGGQNSGNQSFEEDTEEDKPKYEQGGNIVDIDFDSVPQIHGQNKGNQSFEEDTEKDKPKYEHGGNIIDIDFDSVPHIHGFNKHTEIIEEDTNKDKPSYQFGGHNSVDFEEDTLPKVSGQNEGQQTIEEDTTPPIVPPTPPTPEVPSEPETPTPPTPEVPSEPETPTPPTPEVPSEPETPTPPTPEVPAEPGKPVPPAKEEPKKPSKPVEQGKVVTPVIEINEKVKAVAPTKKPQSKKSELPET
notes: the FnBPA gene fragment of library clone ΔFnBPA (as the staphylococcal part of m2); also called ΔFnBPA purified 6xHis polypeptide; source: E. coli cytoplasm (pQE30), purified under native conditions (QIAexpress System), dialysed against PBS; not shown: His6, N-terminal, kept
B2: His-ΔPurK (domain or fragment)
chain: MNFNKLKFGATIGIIGGGQLGKMMAQSAQKMGYKVVVLDPSEDCPCRYVAHEFIQAKYDDEKALNQLGQKCDVITYEFENISAQQLKLLCEKYNIPQGYQAIQLLQDRLTEKETLKSAGTKVVPFISVKESTDIDKAIETLGYPFIVKTRFGGYDGKGQVLINNEKDLQEGFKLIETSECVAEKYLNIKKEVSLTVTRGNNNQITFFPLQENEHRNQILFKTIVPARIDKTAEAKEQVNKIIQSIHFIGTFTVEFFIDSNNQLYVNEIAPRPHNSGHYSIEACDYSQFDTHILAVTGQSLPNSIELLKPAVMMNLLGKDLDLLENEFNEHPEWHLHIYGKSERKDSRKMGHMTVLTNDVNQTEQDMYAKFEGSN
notes: the PurK gene fragment of library clone ΔPurK (as the staphylococcal part of m5), recloned by PCR into pQE30; also called ΔPurK purified 6xHis polypeptide; source: E. coli cytoplasm (pQE30), purified under native conditions (QIAexpress System), dialysed against PBS; not shown: His6, N-terminal, kept
B3: fibrinogen (complex)
chain 1: ADSGEGDFLAEGGGVRGPRVVERHQSACKDSDWPFCSDEDWNYKCPSGCRMKGLIDEVNQDFTNRINKLKNSLFEYQKNNKDSHSLTTNIMEILRGDFSSANNRDNTYNRVSEDLRSRIEVLKRKVIEKVQHIQLLQKNVRAQLVDMKRLEVDIDIKIRSCRGSCSRALAREVDLKDYEDQQKQLEQVIAKDLLPSRDRQHLPLIKMKPVPDLVPGNFKSQLQKVPPEWKALTDMPQMRMELERPGGNEITRGGSTSYGTGSETESPRNPSSAGSWNSGSSGPGSTGNRNPGSSGTGGTATWKPGSSGPGSTGSWNSGSSGTGSTGNQNPGSPRPGSTGTWNPGSSERGSAGHWTSESSVSGSTGQWHSESGSFRPDSPGSGNARPNNPDWGTFEEVSGNVSPGTRREYHTEKLVTSKGDKELRTGKEKVTSGSTTTTRRSCSKTVTKTVIGPDGHKEVTKEVVTSEDGSDCPEAMDLGTLSGIGTLDGFRHRHPDEAAFFDTASTGKTFPGFFSPMLGEFVSETESRGSESGIFTNTKESSSHHPGIAEFPSRGKSSSYSKQFTSSTSYNRGDSTFESKSYKMADEAGSEADHEGTHSTKRGHAKSRPV
chain 2: QGVNDNEEGFFSARGHRPLDKKREEAPSLRPAPPPISGGGYRARPAKAAATQKKVERKAPDAGGCLHADPDLGVLCPTGCQLQEALLQQERPIRNSVDELNNNVEAVSQTSSSSFQYMYLLKDLWQKRQKQVKDNENVVNEYSSELEKHQLYIDETVNSNIPTNLRVLRSILENLRSKIQKLESDVSAQMEYCRTPCTVSCNIPVVSGKECEEIIRKGGETSEMYLIQPDSSVKPYRVYCDMNTENGGWTVIQNRQDGSVDFGRKWDPYKQGFGNVATNTDGKNYCGLPGEYWLGNDKISQLTRMGPTELLIEMEDWKGDKVKAHYGGFTVQNEANKYQISVNKYRGTAGNALMDGASQLMGENRTMTIHNGMFFSTYDRDNDGWLTSDPRKQCSKEDGGGWWYNRCHAANPNGRYYWGGQYTWDMAKHGTDDGVVWMNWKGSWYSMRKMSMKIRPFFPQQ
chain 3: YVATRDNCCILDERFGSYCPTTCGIADFLSTYQTKVDKDLQSLEDILHQVENKTSEVKQLIKAIQLTYNPDESSKPNMIDAATLKSRKMLEEIMKYEASILTHDSSIRYLQEIYNSNNQKIVNLKEKVAQLEAQCQEPCKDTVQIHDITGKDCQDIANKGAKQSGLYFIKPLKANQQFLVYCEIDGSGNGWTVFQKRLDGSVDFKKNWIQYKEGFGHLSPTGTTEFWLGNEKIHLISTQSAIPYALRVELEDWNGRTSTADYAMFKVGPEADKYRLTYAYFAGGDAGDAFDGFDFGDDPSDKFFTSHNGMQFSTWDNDNDKFEGNCAEQDGSGWWMNKCHAGHLNGVYYQGGTYSKASTPNGYDNGIIWATWKTRWYSMKKTTMKIIPFNRLTIGEGQQHHLGGAKQAGDV
modifications: plasma fibrinogen (AαBβγ)2, disulfide-linked and glycosylated, fibrinopeptides retained; the main circulating forms are assumed (Aα 610 residues, γA 411 residues). The γA chain is taken from PDB …
B4: His-ΔUsp (domain or fragment)
chain: MITYKNILIAVDGSHEAEWAFNRAVGVAKRNDAKLTIVNVIDSRTYSSYEVYDAQFTEKSKHFAEELLNGYKEVATNAGVKDVETRLEFGSPKSIIPKKLAHEINADLIMSGTSGLNAVERFIVGSVSESIVRHAPCDVLVVRTEELPADFQPQVATTQLREKYQN
notes: the Usp-like gene fragment of library clone ΔUsp (as the staphylococcal part of m7), recloned by PCR into pQE30; also called ΔUsp purified 6xHis polypeptide; source: E. coli cytoplasm (pQE30), purified under native conditions (QIAexpress System), dialysed against PBS; not shown: His6, N-terminal, kept

What all share (experiment): SPR; Biacore T100, CM5 chip, Fn and Fg amine-coupled; His-polypeptides as analytes at 0.5, 1.0, 1.5, 2.0 and 2.5 μM in PBS, 30 μl/min, single cycle kinetics; steady state affinity constants
What all share (details): both partners purified

The target of one assay is human plasma fibronectin (human).
Chain of human plasma fibronectin (human) (P02751 other isoform, or with tags, fused parts or gaps, chain 1 of 2): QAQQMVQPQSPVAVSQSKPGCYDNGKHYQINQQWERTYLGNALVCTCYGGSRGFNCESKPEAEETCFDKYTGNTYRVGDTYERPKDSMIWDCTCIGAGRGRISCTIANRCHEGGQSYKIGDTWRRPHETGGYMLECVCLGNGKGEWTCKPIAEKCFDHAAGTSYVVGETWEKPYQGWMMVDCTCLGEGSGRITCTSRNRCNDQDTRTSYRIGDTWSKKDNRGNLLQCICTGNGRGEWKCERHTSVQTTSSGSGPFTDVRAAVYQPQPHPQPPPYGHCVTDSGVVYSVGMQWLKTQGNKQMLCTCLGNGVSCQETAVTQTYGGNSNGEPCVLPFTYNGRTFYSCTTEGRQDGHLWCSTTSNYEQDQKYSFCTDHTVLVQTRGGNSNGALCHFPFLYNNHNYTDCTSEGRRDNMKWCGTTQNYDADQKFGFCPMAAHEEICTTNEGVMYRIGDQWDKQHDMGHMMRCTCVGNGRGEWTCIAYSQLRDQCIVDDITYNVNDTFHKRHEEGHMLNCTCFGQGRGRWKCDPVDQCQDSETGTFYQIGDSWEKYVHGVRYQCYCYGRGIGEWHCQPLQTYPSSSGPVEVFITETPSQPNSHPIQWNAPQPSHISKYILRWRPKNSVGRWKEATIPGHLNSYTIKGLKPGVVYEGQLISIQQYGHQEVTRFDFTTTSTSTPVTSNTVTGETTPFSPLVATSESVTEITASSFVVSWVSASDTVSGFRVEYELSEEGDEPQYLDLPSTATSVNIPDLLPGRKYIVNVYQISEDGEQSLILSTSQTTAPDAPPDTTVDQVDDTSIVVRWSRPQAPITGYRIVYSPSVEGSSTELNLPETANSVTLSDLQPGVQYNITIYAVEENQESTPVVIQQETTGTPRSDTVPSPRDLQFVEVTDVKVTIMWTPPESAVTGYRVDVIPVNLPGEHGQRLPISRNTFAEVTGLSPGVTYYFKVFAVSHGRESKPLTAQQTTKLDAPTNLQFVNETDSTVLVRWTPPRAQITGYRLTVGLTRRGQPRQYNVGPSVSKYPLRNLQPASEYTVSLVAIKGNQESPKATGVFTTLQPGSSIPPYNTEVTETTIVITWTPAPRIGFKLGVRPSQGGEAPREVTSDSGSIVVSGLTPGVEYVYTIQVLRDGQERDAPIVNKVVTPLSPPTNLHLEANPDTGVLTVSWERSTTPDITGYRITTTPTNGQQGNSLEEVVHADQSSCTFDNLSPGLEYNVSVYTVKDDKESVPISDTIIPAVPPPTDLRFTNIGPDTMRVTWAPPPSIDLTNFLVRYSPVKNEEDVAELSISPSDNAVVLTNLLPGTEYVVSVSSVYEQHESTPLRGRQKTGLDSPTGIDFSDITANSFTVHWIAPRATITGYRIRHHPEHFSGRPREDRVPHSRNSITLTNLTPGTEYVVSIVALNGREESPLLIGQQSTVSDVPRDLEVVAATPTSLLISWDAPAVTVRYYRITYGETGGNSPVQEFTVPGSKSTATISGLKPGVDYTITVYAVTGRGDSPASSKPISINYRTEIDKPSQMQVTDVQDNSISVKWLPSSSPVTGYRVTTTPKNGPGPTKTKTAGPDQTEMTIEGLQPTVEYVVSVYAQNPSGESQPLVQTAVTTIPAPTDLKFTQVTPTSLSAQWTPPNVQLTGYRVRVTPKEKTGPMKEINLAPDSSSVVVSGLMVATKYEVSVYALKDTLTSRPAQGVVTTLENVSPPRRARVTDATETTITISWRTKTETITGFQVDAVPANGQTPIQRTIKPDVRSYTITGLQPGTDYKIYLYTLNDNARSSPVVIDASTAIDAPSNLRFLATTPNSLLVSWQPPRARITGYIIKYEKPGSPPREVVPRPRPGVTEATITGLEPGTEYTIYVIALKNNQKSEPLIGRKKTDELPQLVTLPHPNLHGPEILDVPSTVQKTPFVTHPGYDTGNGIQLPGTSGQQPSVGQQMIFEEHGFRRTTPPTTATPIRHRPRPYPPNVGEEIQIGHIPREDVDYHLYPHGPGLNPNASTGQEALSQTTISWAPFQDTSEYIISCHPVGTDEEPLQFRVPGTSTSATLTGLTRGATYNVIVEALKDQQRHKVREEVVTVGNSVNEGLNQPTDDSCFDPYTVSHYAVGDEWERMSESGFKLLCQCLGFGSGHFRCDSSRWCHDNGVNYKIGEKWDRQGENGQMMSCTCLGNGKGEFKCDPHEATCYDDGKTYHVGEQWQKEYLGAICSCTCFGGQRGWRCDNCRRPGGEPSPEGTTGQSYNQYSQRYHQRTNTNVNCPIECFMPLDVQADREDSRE
Chain of human plasma fibronectin (human) (P02751 other isoform, or with tags, fused parts or gaps, chain 2 of 2): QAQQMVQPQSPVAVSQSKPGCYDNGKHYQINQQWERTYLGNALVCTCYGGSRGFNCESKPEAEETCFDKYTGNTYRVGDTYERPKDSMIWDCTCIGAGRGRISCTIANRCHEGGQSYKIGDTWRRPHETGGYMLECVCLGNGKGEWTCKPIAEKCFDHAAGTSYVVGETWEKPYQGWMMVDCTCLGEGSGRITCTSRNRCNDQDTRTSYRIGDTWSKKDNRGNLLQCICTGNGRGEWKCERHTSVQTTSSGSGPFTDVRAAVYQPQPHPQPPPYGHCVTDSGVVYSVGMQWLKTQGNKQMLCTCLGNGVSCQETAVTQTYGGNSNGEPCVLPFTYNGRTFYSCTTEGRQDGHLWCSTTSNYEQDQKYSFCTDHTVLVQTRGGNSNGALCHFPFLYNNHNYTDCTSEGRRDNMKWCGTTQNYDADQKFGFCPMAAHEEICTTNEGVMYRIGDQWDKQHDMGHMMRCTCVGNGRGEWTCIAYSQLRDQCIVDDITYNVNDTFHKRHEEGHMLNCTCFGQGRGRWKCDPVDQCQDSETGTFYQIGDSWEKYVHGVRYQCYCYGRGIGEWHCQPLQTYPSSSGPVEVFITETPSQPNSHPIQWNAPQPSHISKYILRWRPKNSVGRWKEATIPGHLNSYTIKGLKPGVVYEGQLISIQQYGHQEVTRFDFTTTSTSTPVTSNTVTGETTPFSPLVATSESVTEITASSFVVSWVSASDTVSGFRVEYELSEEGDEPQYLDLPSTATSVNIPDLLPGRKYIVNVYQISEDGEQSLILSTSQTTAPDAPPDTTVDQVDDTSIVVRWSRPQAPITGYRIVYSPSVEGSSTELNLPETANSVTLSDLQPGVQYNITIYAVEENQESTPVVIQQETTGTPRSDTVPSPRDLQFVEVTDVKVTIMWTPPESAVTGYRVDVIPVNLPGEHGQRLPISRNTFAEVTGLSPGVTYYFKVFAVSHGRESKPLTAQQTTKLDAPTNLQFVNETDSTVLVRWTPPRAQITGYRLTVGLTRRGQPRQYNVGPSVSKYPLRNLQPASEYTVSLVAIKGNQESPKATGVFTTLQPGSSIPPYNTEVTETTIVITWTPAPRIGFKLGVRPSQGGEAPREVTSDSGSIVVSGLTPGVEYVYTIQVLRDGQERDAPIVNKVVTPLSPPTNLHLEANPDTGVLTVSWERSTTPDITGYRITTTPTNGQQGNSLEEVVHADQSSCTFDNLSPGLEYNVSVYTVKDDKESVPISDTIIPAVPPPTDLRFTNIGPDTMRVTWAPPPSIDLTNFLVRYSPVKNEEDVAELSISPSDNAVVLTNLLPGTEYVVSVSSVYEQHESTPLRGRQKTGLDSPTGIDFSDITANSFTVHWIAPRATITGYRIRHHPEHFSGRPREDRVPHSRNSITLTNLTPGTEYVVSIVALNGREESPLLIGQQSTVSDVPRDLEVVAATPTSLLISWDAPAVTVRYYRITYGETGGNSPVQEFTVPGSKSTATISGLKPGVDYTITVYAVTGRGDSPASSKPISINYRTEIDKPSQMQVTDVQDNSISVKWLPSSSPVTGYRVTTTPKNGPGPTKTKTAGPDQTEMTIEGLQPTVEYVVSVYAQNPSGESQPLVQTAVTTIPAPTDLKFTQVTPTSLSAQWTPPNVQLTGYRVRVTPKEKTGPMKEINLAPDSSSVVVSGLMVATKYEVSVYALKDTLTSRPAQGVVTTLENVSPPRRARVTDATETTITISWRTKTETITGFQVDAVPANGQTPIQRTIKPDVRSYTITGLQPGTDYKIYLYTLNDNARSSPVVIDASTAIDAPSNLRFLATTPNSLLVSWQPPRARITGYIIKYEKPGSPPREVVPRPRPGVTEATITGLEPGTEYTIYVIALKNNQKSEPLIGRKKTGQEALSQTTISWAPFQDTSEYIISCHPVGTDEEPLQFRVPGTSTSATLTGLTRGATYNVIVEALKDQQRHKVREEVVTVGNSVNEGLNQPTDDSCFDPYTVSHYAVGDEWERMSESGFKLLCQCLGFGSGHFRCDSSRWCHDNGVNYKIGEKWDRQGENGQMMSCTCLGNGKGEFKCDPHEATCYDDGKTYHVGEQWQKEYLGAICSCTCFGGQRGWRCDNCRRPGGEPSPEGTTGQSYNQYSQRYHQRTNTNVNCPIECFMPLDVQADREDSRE
The assay “fibrinogen” concerns the target B3.
A further assay has as its target His-ΔCoa (S. aureus subsp. aureus NCTC 8325-4, UniProt Q2G1D3 1-636).
Another assay has as its target T1, His-ΔEbh (S. aureus subsp. aureus NCTC 8325-4, UniProt Q2FYJ6 40-9535).
T1 construct: the Ebh gene fragment of library clone ΔEbh (as the staphylococcal part of m3), recloned by PCR into pQE30; also called ΔEbh purified 6xHis polypeptide; source: E. coli cytoplasm (pQE30), purified under native conditions (QIAexpress System), dialysed against PBS; not shown: His6, N-terminal, kept

Take B1: the Kd with human plasma fibronectin turned out to be 5.24 µM.

Turning to B2, the Kd with fibrinogen was determined as 5.39 µM; with human plasma fibronectin it was 0.443 µM.

Consider B3, for which the figures for the Kd in the assay with His-ΔCoa and with His-ΔEbh were 0.18 µM and 1.25 µM, respectively.

As for B4, the Kd with fibrinogen was 6.45 µM.
